In experiment [1] the target is human BCL-2 (in FL5.12-Bcl-2 cells) (human, UniProt P10415). Kind of experiment: In Vitro and In Vivo BCL-2 Binding (summary: GST pull-down and anti-BID immunoprecipitation with anti-BCL-2 blot).
The target in experiment [2] is BAX (in FL5.12-Bcl-2 cells) (murine, UniProt Q07813). Kind of experiment: In Vitro and In Vivo BAX Binding (summary: GST pull-down and anti-BID immunoprecipitation with anti-BAX blot).

Changes are numbered by the printed parent chain. In names and notes the source's numbering stands.

B1: BIDmIII-1 (M97A,D98A) (other)
chain: MDSEVSNGSGLGAKHITDLLVFGFLQSSGCTRQELEVLGRELPVQAYWEADLEDELQTDGSQASRSFNQGRIEPDSESQEEIIHNIARHLAQIGDEAAHNIQPTLVRQLAAQFMNGSLSEEDKRNCLAKALDEVKTAFPRDMENDKAMLIMTMLLAKKVASHAPSLLRDVFHTTVNFINQNLFSYVRNLVRNEMD
As to B1, the binding result in experiment [1] is given as “no binding”.

B2: BIDmIII-3 (G94A) (other)
chain: B1 chain with G94A, A97M, A98D
In the case of B2, the binding result in experiment [2] is recorded as “no binding”.

Source of the values: patent US5998583, “BH3 interacting domain death agonist” (Washington University, dated 1999).
